Series [1] in a line: Maximum soluble concentration in media. Format: physicochemical. The conditions noted are these: yeast culture media, aqueous buffer.
In series [2] the test system is p1-encoded leu2 (Q180*). As to the kind of experiment: qPCR measurement of p1-encoded leu2 (Q180*) copy number. The conditions noted are these: qPCR-determined p1 copy number, OR-Y24 strains. Format: cell-based, S. cerevisiae. Here is the method: A calibration curve was established to correlate p1 copy number, determined via quantitative PCR (qPCR), with fluorescence of p1-encoded mKate2 (Table 1). Five TP-DNAP1 variants representing a wide range of copy numbers were transformed into ORY24 and passaged until w.t. p1 was displaced. The five OR-Y24 strains were grown to saturation, diluted 1:10,000 to mimic p1 fluctuation tests, and grown in triplicate 100 μL cultures and duplicate 40 mL cultures. 100 μL saturated cultures were subject to fluorescence measurement of mKate2 (ex/em=561 nm/620 nm, bandwidth=15 nm) on a flow cytometer (Invitrogen Attune NxT). Whole-cell DNA extracts were prepared from 40 mL cultures and used as templates for qPCR measurement of p1-encoded leu2 (Q180*), as described previously (Ravikumar et al., 2014). p1-encoded LEU2 was PCR amplified with qPCR-Leu2F and qPCR Leu2R; and genomic LEU3 was PCR amplified with qPCR-Leu3F and qPCR-Leu3R using SyBR Green (Fisher Scientific) master mix.

For a further series, the system named is p2-encoded leu2*. Briefly: p2 leu2* fluctuation tests in GA-Y021 (p2 mutation rate reporter strain). Format: cell-based, S. cerevisiae. Conditions: GA-Y021, noncognate polymerase in trans, mutual orthogonality experiment. An excerpt:
For fluctuation tests used to measure p2 mutation rates, leu2* served as a marker for detecting mutational events. leu2* is a disabled version of LEU2, where Q180 is replaced with a TAA stop codon. Q180 is a permissive site where mutation to any other codon other than TAG and TGA results in functional reversion to LEU2. These mutational events can be detected by plating scores of parallel cultures on medium lacking leucine and counting the number distribution of functional LEU2 mutants.
For TP-DNAP2 library screening, each library member was subjected to small-scale leu2* fluctuation tests with six replicates. 190 library members from each yeast library transformation were arrayed and inoculated into liquid SC medium lacking uracil and histidine, and passaged three times at 1:10,000 dilutions. mKate2 fluorescence was measured at every passage on a microplate reader (TECAN Infinite® 200 PRO, settings: λex=588, λem=633) to track p2 copy number stabilization. To perform fluctuation tests, each library member was diluted 1:10,000 into liquid SC medium buffered to pH 5.8 and lacking uracil, histidine, tryptophan, and dilutions were split into six 100 μL replicates. Cultures were grown for 48 hours at 30° C. to reach saturation. Saturated cultures were washed with 200 μL 0.9% NaCl to remove residual leucine and resuspended in 35 μL of 0.9% NaCl. 10 μL of this resuspension was spot plated onto solid SC medium buffered to pH 5.8 and lacking uracil, histidine, tryptophan and leucine. Spot plates were allowed to dry and incubated at 30° C. Colonies were counted after 5 days. Colony counts were used to calculate the expected number of LEU2 functional mutants (m), using the p0 method (Foster, 2006, Methods Enzymol, 409:195-213).
(§1) To precisely measure p1 and p2 per-base substitution mutation rates, several modifications were made to the small-scale protocol. First, 36 replicates were performed for reconfirmation of candidate TP-DNAP2 mutators, and 48 replicates for genomic and mutual orthogonality experiments. Titers were also determined for each strain after spot plating by pooling the residual volume from 4 replicates and plating dilutions on YPD. The expected number of LEU2 functional mutants (m) was determined by the Ma-Sandri-Sarkar maximum likelihood estimator (as calculated by the FALCOR tool and corrected for partial plating (Foster, 2006, Methods Enzymol, 409:195-213; Sarkar et al., 1992, Genetica, 85:173-179; Hall et al., 2009, Bioinformatics, 25:1564-1565). The mean mKate2 fluorescence was determined from 50,000 event counts on Attune™ NxT Flow Cytometer and converted to p2 copy number by using a calibration curve. To determine per-base substitution rates, the corrected m was normalized to the average cell titer, the p2 copy number, and the target size for functional leu2* reversion (2.33 bp). 95% confidence intervals were similarly scaled.
To identify error-prone TP-DNAP2s, a small library of TP-DNAP2s diversified at locations hypothesized to be responsible for DNAP fidelity was screened. […] Four distinct site-saturation mutagenesis libraries were generated, each diversifying S370, Y424, L474, or F882 in TP-DNAP2 encoded on pGA55-reTP-DNAP2. Due to unsuccessful attempts to generate a strain with a full deletion of p2-encoded TP-DNAP2 and simultaneous integration of mKate, URA3, and leu2*, each library was transformed into GA-Y021 for convenient screening. However, since GA-Y021 still encodes wt TP-DNAP2 on p2-delORF1-mUL*, p2 mutation rates measured in this format are the result of in tandem replication of p2 by wt TP-DNAP2 and each TP-DNAP2 variant encoded in trans. 6-fold coverage of each library was maintained by picking 190 yeast colonies and passaging under selection for URA3 to stabilize the copy number of p2-delORF1-mUL* in the presence of the newly introduced TP-DNAP2 variants. […]

In a further series the test system is p1-encoded leu2*. Briefly: p1 leu2* fluctuation tests in AR-Y304 (p1 mutation rate reporter strain, mutual orthogonality). The conditions noted are these: AR-Y304, polymerase in trans. In kind it is cell-based, S. cerevisiae.
Description: Strains for testing mutual orthogonality were generated by transforming a panel of CEN6/ARS4 vectors encoding TP-DNAP1 or TP-DNAP2 variants into two base strains, AR-Y304 and GA-Y021. AR-Y304 (Ravikumar et al., 2014, Nature Chemical Biology, 10:175-177) contains recombinant p1 encoding mKate2, URA3 and leu2* without disturbing the native TP-DNAP1 ORF. Similarly, GA-Y021 encodes recombinant p2 that replaces ORF1 with mKate2, URA3 and leu2* without disturbing the native TP-DNAP2 ORF.
as §1
To test whether the replication mechanisms of p1 and p2 are mutually orthogonal in vivo, p1 and p2 mutation rates were measured in the presence of a panel of TP-DNAP1 and TP-DNAP2 variants with varying mutation rates. Changes in p1 or p2 mutation rate induced by TP-DNAP variants would therefore signal a degree of cross-replication between TP-DNAP1/p1 and TP-DNAP2/p2, if any. A panel of six polymerases was introduced on CEN6/ARS4 vectors into two separate base strains, AR-Y304 (p1 mutation rate reporter strain) and GA-Y021 (p2 mutation rate reporter strain), encoding mKate2, URA3, and leu2* on either p1 or p2, respectively. Included in this panel were TP-DNAP1^WT and two error-prone TP-DNAP1 variants found in previous screens: TP-DNAP1^1777K, L900S and TP-DNAP1^L477V, L640Y, I777K, W814N. Also included were TP-DNAP2^WT and the error-prone TP-DNAP2^S370Q and TP-DNAP2^Y424Q variants found in this work. In AR-Y304 and GA-Y021, both p1 and p2 still encode their native wt TP-DNAP's. Any contribution to replication by a third TP-DNAP encoded in trans is monitored by detecting changes in linear plasmid mutation rate. Importantly, these experiments afford each DNAP an opportunity to replicate its native plasmid and lose its attached TP, becoming “spent” and perhaps more likely to replicate its noncognate linear plasmid through DNAP exchange (Klassen and Meinhardt, 2007, Linear Protein-Primed Replicating Plasmids in Eukaryotic Microbes, in Microbial Linear Plasmids, pp 1 87-226. Springer, Berlin, Heidelberg). The presence of TP-DNAP1^WT or TP-DNAP2^WT in trans had no effect on their noncognate linear plasmids' mutation rate. […] Likewise, p1 mutation rate was unaltered in the presence of mutagenic TP-DNAP2^S370Q and TP-DNAP2^Y424Q, which increased p2 mutation rate by 29- and 16-fold, respectively (FIG. 9). Thus, TP-DNAP1 replicates p1 with at least 870-fold specificity over p2, while TP-DNAP2 targets p2 with at least 29-fold specificity over p1. The level of mutual orthogonality measured here is limited by the error-rates of DNAPs used, especially that of TP-DNAP2 variants.

In series [3] the test system is p1-encoded leu2 (Q180*). Briefly: Large-scale p1 fluctuation tests of p1-encoded leu2 (Q180*), per-base substitution rate. Conditions: per-base substitution rate, p1-encoded leu2 (Q180*), large-scale fluctuation test. Format: cell-based, S. cerevisiae. In a few lines:
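Yeast OR-Y24 carrying p1-encoded leu2 (Q180*) with individual TP-DNAP1 variants; 36-48 replicates (3-16 for highly error-prone variants), LEU2 revertants scored without leucine. Rates by maximum likelihood, normalized to cells per culture, p1 copy number (flow cytometry) and 2.33 reversion routes.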

A further series deals with genomic URA3 gene. Briefly: Fluctuation tests of the genomic URA3 gene in the presence of TP-DNAP1 variants. In kind it is cell-based, S. cerevisiae. The conditions noted are these: URA3 locus, strain harbouring p1 and the TP-DNAP1 variant. Here is the method: Fluctuation tests of the genomic URA3 gene were performed to determine genomic per-base substitution rates, as previously described (Ravikumar et al., 2014). Fluctuation data were analyzed by the maximum likelihood method, as described for large-scale p1 fluctuation tests. Phenotypic mutation rates were divided by the target size for loss of function of URA3 via base pair substitution (Lang et al., 2008), to yield per-base substitution rates. 95% confidence intervals were similarly scaled by these factors. All data related to genomic URA3 fluctuation tests are fully described in Table 5.

Positions count from the first letter of the chain named. Names and notes keep the numbering of the source. Values after ≈ are worked out from the molar mass of the structure shown. Values joined by “and” are separate entries in the source; they are usually repeats but may differ in a detail not shown here. Equal entries are not always repeated.

The text below walks through data of patent publication US20230242902A1, “A HIGHLY ERROR-PRONE […] R[…] FOR TARGETED CONTINUOUS EVOLUTION IN VIVO” (The Regents of the University of California, priority 2017, published 2023).

One may read the solubility as how much of the substance goes into solution per volume. Low readings indicate a poorly soluble substance, high ones a readily soluble substance.

As to `CCc1nc(N)nc(N)c1-c1ccc(Cl)cc1` [pyrimethamine], the solubility in series [1] was determined as 3000 µM (≈ 746 µg/mL).

B1: I777K, L900S: TP-DNAP1 variant, encoded by SEQ ID NO:7 (protein, listed as Kluyveromyces lactis)
chain: MDYKDKALNDLRNVYADFDSLPLDFRQILIKDRATLLQKEDVEKKILERQEDAKKYAEYLKQSEIPERISLPNIKRHKGVSISFEETSEDMVLEPRPFIFDGLNIRCFRRETIFSLKNKILNMVKESSSFKNVSRQSVSFMYFKIFNKGKVIASTKSVNIYEDKIDERLEDLCNNFDDVLKKIIDVTYGYESLFVSETYSYVIFYAKSIYFPQPRCVNNWGNNIPNILTFDSFKLFTANKNNVSCIKQCSRFLWQKDFNTLEEMIEYKNGNICIVTPQLHINDVRDIKSFNDIRLYSESPIKTFSVIDNTITYLFYFKEHLGVIFNITKSRHDRRVTKFSPLSKFSDVKNITVCFDIESYFDPEKESNQVNIPFICCASIIYNKVIGNIVDFEGRDCVAQMIEYVVDICGELNISSVELIAHNGGGYDFHYILSSMYNPAAIKNILIRNNSFISFNFAHDGVKFSVKDSYSFLLCSLANASKAFLNEETFKKTDFPHHDLKTADDLYKVYKEWSSVNTEINHVVEKEKLLITSEHIVNFTKNDKSKTLIEWSKDYCRNDVLVLSKVWLEFKNAVEDIFNCELVDQTMTLAGLSYKLFQANMPFDVELRHPNKEDYFNMREALIGGRCISVNGIYKDVLCLDVKSLYPASMAFYDQPYGSFKRVSSRPKDELGIYYVRVTPNRNNKSNFFPIRSHNKITYNNFEESTYIAWYTNVDIDIGLSEGHNIEYIPFDSYGNIGYSWSKKGKIFEKYIKDVLYKLKIKYEKQNNKVKRNVIKKIMNSLWGKFAQKWVNFEYFIKSEDDIDFESEEAYKIWDTDFMLIKKIKESTYSSKPIQNGVFTLSWARYHMKSIWDAGAKEGAECIYSDTDSIFVHKEHFKKNAKFMLNGLKVPIIGSEVGQSELECEFDKLLCAGKKQYMGFYTYFQDGKPCIKEKKRFKGIPSNYIIPELYAHLLSGADKEAKIQFLKFRREWGSVKGYIENKTVKAT
Regarding B1, the “Average leu2 (Q180*) copy number per cell” value in the series with p1-encoded leu2 (Q180*) [2] was 22.5 and 38.6. Besides, the “change in p2 mutation rate by TP-DNAP1” value in the series on p2-encoded leu2* is “no statistically significant change”. Further, the “fold increase of p1 mutation rate” value in the series with p1-encoded leu2* came out at 380 fold.

B2: L474W, L640Y, I777K, W814N: TP-DNAP1 variant, encoded by SEQ ID NO:9 (protein, listed as Kluyveromyces lactis)
chain: B1 chain with L474W, L640Y, W814N, S900L
For B2, the “Mutation rate (s.p.b.)” value in the series on p1-encoded leu2 (Q180*) [3] is 4.03 × 10^−6 s.p.b. and 2.74 × 10^−6 s.p.b. In addition, in the series on p1-encoded leu2 (Q180*) [2] (L640Y, I777K), the “Average leu2 (Q180*) copy number per cell” value is 8.63 and 11.1. Further, the “Yeast genomic substitution mutation rate” value in the series with genomic URA3 gene is 2.17 × 10^−10 s.p.b.
